According to patent publication US20060121042A1:

Molecular target: hEphA2 (human) (UniProt P29317)
Assay: ELISA

Sequence of hEphA2 (human) (P29317 25-534 limits assumed): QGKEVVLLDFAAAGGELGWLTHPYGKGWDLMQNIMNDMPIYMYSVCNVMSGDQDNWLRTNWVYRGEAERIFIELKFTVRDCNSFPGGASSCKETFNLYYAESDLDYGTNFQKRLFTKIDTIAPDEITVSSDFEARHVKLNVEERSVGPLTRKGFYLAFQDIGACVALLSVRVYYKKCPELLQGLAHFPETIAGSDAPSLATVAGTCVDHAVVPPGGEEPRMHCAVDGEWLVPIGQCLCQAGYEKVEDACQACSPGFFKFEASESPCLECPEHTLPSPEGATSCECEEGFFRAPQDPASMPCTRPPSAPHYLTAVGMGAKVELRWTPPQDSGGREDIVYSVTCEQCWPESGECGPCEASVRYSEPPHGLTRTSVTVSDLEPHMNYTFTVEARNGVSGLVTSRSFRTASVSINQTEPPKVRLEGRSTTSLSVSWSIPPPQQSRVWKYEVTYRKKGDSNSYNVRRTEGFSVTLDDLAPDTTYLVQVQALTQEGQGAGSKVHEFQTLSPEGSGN

- ELISA O.D. value: 0.453
B1: 3F2 (antibody, from another filing, V domains shown)
VH: EVQLVESGGGVVRPGGSLRLSCAASGFTVSDYSMNWVRQAPGKGLEWIGFIRNKANAYTTEYSASVKGRFTISRDDSKNTLYLQMNSLKTEDTAVYYCTTYPRYHAMDSWGQGTMVTVSS
VL: AIQLTQSPSSLSASVGDRVTITCRASQSISNNLHWYLQKPGQSPQLLIYYGFQSISGVPSRFSGSGSGTDFTLTISSLQPEDFATYYCQQANSWPLTFGGGTKLEIK
